Results taken from patent publication US11491212.

B1: FIXa-K228N/K247N/N249S/R318Y/R338E/T343R/R403E/E410N (protein)
chain 1: not shown
chain 2: not shown
B2: FIXa-Y155F/R338E/T343R/R403E/E410S (protein)
chain 1: not shown
chain 2: not shown
B3: FIXa-Y155F/I251S/R338E/T343R/R403E (protein)
chain 1: not shown
chain 2: not shown
B4: FIXa-Y155F/K228N/K247N/N249S/R318Y/R338E/T343R/R403E/E410N (protein)
chain 1: not shown
chain 2: not shown
B5: FIXa-Y155F/N260S/R318Y/R338E/T343R/R403E/E410N (protein)
chain 1: not shown
chain 2: not shown
B6: FIXa-R338E/T343R/R403E (protein)
chain 1: not shown
chain 2: not shown
B7: FIXa-Y155F/R338E/T343R/R403E (protein)
chain 1: not shown
chain 2: not shown
B8: FIXa R338E/T343R/E410N (protein)
chain 1: not shown
chain 2: not shown
B9: FIXa-Y155F/N260S/R338E/T343R/R403E (protein)
chain 1: not shown
chain 2: not shown
B10: FIXa Y155F/K247N/N249S/T343R/R403E/E410N (protein)
chain 1: not shown
chain 2: not shown

These proteins were tested against Factor X, P00742.
Factor X, P00742, sequence (P00742 whole entry, looked up): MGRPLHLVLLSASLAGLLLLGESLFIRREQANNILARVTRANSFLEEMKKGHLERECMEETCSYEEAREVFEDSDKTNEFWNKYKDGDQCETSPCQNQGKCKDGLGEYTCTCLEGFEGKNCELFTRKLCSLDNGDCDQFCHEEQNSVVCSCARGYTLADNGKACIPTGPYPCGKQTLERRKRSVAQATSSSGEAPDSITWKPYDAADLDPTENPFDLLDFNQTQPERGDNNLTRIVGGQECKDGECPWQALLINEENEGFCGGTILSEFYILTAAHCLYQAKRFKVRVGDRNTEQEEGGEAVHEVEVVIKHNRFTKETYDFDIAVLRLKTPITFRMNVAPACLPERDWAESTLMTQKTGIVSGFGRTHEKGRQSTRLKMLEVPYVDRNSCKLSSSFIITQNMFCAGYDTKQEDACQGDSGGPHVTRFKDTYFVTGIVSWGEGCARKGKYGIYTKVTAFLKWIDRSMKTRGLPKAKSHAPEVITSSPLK

Point of comparison: B6, KM 0.0235 µM. Against it:
- B1 — within 1.5-fold, 0.0251 µM
- B2 — within 1.5-fold, 0.0239 µM
- B3 — within 1.5-fold, 0.0196 µM
- B4 — 1.6-fold higher, 0.0368 µM
- B5 — 1.7-fold higher, 0.0402 µM
- B7 — within 1.5-fold, 0.0289 µM
- B9 — 2.9-fold higher, 0.0692 µM

Point of comparison: B10, kcat/KM 2.9e+08 M⁻¹ s⁻¹. Against it:
- B1 — within 1.5-fold, 4.1e+08 M⁻¹ s⁻¹
- B2 — the same, 2.9e+08 M⁻¹ s⁻¹
- B3 — within 1.5-fold, 3e+08 M⁻¹ s⁻¹
- B4 — within 1.5-fold, 3e+08 M⁻¹ s⁻¹
- B5 — 1.9-fold lower, 1.5e+08 M⁻¹ s⁻¹
- B6 — within 1.5-fold, 3.1e+08 M⁻¹ s⁻¹
- B7 — within 1.5-fold, 2e+08 M⁻¹ s⁻¹
- B8 — 3.1-fold lower, 9.3e+07 M⁻¹ s⁻¹
- B9 — 3.1-fold lower, 9.4e+07 M⁻¹ s⁻¹

Point of comparison: B8, “% of WT kcat/KM” value 201%. Against it:
- B10 — higher, 635%
